Residue numbers refer to the chain shown, from its start.

Holding throughout (assay): SPR, KD relative to WT C2;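 also: biacore SPR at 37 °C, anti-C2 mAbs captured via immobilised goat anti-human IgG, C2 alanine or serine surface mutants as analytes, 1:1 model fitted, double-referenced sensograms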
For one experiment, the target named is T1, human C2 L279A (human, UniProt P06681 21-752).
T1 sequence: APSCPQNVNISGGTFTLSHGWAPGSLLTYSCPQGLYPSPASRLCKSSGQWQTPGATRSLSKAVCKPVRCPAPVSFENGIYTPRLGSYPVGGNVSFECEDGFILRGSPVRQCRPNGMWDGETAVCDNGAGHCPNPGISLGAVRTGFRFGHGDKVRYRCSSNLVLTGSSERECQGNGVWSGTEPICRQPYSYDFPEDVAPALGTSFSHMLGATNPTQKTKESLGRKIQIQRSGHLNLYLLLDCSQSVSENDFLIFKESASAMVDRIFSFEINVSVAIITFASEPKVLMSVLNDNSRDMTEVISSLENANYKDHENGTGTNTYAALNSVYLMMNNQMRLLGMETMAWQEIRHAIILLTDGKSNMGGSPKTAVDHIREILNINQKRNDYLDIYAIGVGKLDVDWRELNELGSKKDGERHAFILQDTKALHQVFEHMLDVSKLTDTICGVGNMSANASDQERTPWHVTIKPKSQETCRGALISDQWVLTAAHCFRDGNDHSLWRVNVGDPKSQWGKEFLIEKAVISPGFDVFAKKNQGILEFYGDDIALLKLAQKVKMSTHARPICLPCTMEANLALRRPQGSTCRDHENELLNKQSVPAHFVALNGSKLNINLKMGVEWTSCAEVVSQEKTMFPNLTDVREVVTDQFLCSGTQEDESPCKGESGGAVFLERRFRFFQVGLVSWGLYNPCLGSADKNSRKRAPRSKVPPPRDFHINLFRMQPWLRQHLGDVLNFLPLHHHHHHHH

Experiment [1] addresses T2, human complement C2 (wild type) (human, UniProt P06681 21-752).
T2 construct: Full-length human C2 (NP_000054) with C-terminal 8x His tag, secreted from Expi293F cells and purified from the supernatant; also called WT; huC2
T2 sequence: T1 sequence with A259L

For a further experiment, the target named is T3, human C2 E686A (human, UniProt P06681 21-752).
T3 sequence: T1 sequence with A259L, E666A

B1: RF16-226 (antibody, human IgG4 S228P, lambda)
heavy: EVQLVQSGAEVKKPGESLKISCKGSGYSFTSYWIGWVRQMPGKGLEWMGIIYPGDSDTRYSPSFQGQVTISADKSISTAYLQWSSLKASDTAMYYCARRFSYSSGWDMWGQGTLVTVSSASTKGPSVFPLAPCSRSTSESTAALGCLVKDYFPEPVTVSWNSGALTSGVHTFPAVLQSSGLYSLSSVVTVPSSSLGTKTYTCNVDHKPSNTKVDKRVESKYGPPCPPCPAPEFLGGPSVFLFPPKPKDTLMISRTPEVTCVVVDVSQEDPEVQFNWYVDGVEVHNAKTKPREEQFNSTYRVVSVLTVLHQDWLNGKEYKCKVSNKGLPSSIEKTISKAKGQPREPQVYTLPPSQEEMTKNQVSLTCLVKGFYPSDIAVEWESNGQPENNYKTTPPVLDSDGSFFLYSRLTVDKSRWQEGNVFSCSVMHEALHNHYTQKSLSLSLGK
light: SYELTQPPSVSVSPGQTARITCSGDALTSKYVAWYQQKSGLAPLLVIYEDTRRPSGIPAKFSGSSSGSVATLTISGAHGDDEADYYCYSTDASGHQRVFGGGTKLTVLSQPKAAPSVTLFPPSSEELQANKATLVCLISDFYPGAVTVAWKADGSPVKAGVETTKPSKQSNNKYAASSYLSLTPEQWKSHRSYSCQVTHEGSTVEKTVAPTECS
notes: pH-dependent anti-C2 antibody from a phage display library; also called WT
For the molecule B1, the Fold diff was found to be 5 fold with human C2 L279A, 1 fold in experiment [1] and 5 fold with human C2 E686A.

The values are drawn from patent US20220332804A1 (CSL INNOVATION, published 2022).
